Biological target: T1, mouse core RAG1 (384–1008aa) (mouse, UniProt P15919 384-1008)
T1 sequence (looked up): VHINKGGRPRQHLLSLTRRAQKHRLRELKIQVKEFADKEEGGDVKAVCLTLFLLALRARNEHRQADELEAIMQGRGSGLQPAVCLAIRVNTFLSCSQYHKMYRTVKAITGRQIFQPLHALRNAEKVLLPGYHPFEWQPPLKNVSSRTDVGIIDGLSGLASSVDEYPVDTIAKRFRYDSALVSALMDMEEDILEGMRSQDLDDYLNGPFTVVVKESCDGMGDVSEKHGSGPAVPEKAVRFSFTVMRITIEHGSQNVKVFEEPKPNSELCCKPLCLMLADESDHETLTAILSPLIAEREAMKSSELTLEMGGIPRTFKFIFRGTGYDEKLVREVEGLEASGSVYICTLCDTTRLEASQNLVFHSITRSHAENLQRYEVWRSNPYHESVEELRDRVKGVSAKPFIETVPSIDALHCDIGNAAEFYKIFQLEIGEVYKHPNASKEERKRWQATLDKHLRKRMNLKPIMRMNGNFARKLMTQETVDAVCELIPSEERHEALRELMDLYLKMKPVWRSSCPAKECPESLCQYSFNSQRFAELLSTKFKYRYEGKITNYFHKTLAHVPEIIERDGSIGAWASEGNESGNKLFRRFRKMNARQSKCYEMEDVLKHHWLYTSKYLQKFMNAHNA
Test: crystal structure

B1: mouse core RAG2 (1–387aa), M1V (domain or fragment, UniProt P21784 1-387, looked up)
chain: VSLQMVTVGHNIALIQPGFSLMNFDGQVFFFGQKGWPKRSCPTGVFHFDIKQNHLKLKPAIFSKDSCYLPPLRYPATCSYKGSIDSDKHQYIIHGGKTPNNELSDKIYIMSVACKNNKKVTFRCTEKDLVGDVPEPRYGHSIDVVYSRGKSMGVLFGGRSYMPSTQRTTEKWNSVADCLPHVFLIDFEFGCATSYILPELQDGLSFHVSIARNDTVYILGGHSLASNIRPANLYRIRVDLPLGTPAVNCTVLPGGISVSSAILTQTNNDEFVIVGGYQLENQKRMVCSLVSLGDNTIEISEMETPDWTSDIKHSKIWFGSNMGNGTIFLGIPGDNKQAMSEAFYFYTLRCSEEDLSEDQKIVSNSQTSTEDPGDSTPFEDSEEFCFS
- binding result: binds

Source: PMC4342785 (Nature, 2015)
